Data reported in IntAct's records for PubMed 11565033.

B1: F-box/WD repeat-containing protein 7 (Drosophila melanogaster (Fruit fly)), Q9VZF4 (parent)
chain: MERGCPAASSESVTSAGERTQSAVTSSTSTWVKSQASTSRKTEASEESGLGAVDAEVGAGREAFVSMSTLREDVEDVCVSSNSQHGFAVVLDDESSTFEISSSNSLPTSAGAASTVGVVAVDDSSSTDTLNGGHPDLGHPASSEHSRQGFFNEDNEDPPVVCLINDDDDDEEPEPEEDDEEELIEDEDEDAVDIVTGAISCPNTSQLALADGTIMAADGSKIFLETPVVEEAQPHPGQVVTTGSQSELTGKPKRLSDEFLLGEEDQAENLALGRCIKSEPVNPVDDNPSEGDDGATCFSLHDRLMSVRLKQMSLTANTVSNPSPAASANAAAPEEASTSNSSSTSSSALSRADIESMDLIERRDFETEQRLTGGIILRTSSMVSQNKLNLSLIKSMAGGSKAANGSGTANSDDWPSSSNGRTVSSDSKYTYKDLSTTPTSSRKYTNSRLSKSTAKLNLGSSLGASSCSQHRSGSSSTSKSMESSTSCTGAARTDVYTNTNSNDYPSLAPTTSGSSTSGGSCQQDQEENVSASVSYSSVGSQTSQESGCSRTTAINPTAACSTGSACLGDSQASTSASTSSGAGASNRCQYATTSTTKAARQVNASAQTQERFLTRSNPPAASGAGSVGANPTASVRQRRNGSSDVVHLEVVVEEGAGGGDGGVVEPGDFSAEEPWANCDEENNCSDLEEICTCQNGNGSSYGGSNASLSETFDMDAMDPDEPISLSLSSASAGFTEYSLTNPSSLMSHQRKRKFNEGRLLDGGDYSVTISSSGEVGGPGSGVSDNCRKRIAYDFASTPRSSQHLGPTAVLSVTPSSHLTSSTPGSALGRRTPRSVPSRDNPPPELQHWLAQFQRWSHVERLLALDRLIDHCDPSQVRHMMKVIEPQFQRDFISLLPRELALFVLSYLEPKDLLRAAQTCRSWRFLCDDNLLWKEKCRKAQILAEPRSDRPKRGRDGNMPPIASPWKAAYMRQHIIEMNWRSRPVRKPKVLKGHDDHVITCLQFSGNRIVSGSDDNTLKVWSAVNGKCLRTLVGHTGGVWSSQMSGNIIISGSTDRTLKVWDMDSGACVHTLQGHTSTVRCMHLHGSKVVSGSRDATLRVWDIEQGSCLHVLVGHLAAVRCVQYDGKLIVSGAYDYMVKIWHPERQECLHTLQGHTNRVYSLQFDGLHVVSGSLDTSIRVWDVETGNCKHTLMGHQSLTSGMELRQNILVSGNADSTVKVWDITTGQCLQTLSGPNKHHSAVTCLQFNSRFVVTSSDDGTVKLWDVKTGDFIRNLVALDSGGSGGVVWRIRANDTKLICAVGSRNGTEETKLMVLDFDVEGACVKCS
partner: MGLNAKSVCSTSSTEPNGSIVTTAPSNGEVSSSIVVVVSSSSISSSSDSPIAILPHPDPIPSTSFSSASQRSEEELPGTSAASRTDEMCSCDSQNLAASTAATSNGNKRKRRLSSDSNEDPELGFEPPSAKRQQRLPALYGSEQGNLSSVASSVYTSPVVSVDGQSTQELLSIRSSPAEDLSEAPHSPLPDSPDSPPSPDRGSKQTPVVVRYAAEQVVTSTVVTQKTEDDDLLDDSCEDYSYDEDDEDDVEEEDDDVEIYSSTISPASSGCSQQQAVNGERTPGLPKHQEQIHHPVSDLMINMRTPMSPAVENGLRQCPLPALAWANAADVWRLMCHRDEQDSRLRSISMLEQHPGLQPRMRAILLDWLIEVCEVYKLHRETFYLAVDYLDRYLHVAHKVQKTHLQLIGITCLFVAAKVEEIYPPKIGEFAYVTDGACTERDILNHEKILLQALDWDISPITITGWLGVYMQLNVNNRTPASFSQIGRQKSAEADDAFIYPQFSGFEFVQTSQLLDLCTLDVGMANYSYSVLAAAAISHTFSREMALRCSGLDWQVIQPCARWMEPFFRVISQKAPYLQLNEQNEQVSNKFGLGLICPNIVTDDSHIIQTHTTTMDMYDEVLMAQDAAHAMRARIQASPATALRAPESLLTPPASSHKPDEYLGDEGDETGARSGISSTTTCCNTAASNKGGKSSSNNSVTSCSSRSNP

Variants of: B1
Settings: with ccne_drome CycE

Variant | effect of a mutation on the interaction
G1131E | decreasing interaction
